Assay results reported in patent publication US20200165342A1.
Several values for one entry are separate records, joined by “and”; a condition that tells them apart may be missing. Identical values can stand only once.

Columns and labels:
Experiment in all cases: cell-based or functional assay
[1] = target: HLA-DR of the DR^str donor (HLA-DRB1 variant bound strongly by MVR), on B cells, T cells and EBV LCLs (human)
[2] = target: HLA-DR of the DR^weak donor (HLA-DRB1 variant bound weakly by MVR), on B cells, T cells and EBV LCLs (human)
[3] = target: HLA-DR of the DR^int donor (HLA-DRB1 variant bound with intermediate affinity by MVR), on B cells and T cells (human)

- frequency of CD4+ MVR-CAR T cells with two or more polyfunctional markers after co-culture with DR^str-EBV-LCLs [1]: 71.3%
- frequency of CD8+ MVR-CAR T cells with two or more polyfunctional markers after co-culture with DR^str-EBV-LCLs [1]: 29.4%
- granule influx into DR^str B cells and DR^str EBV LCLs relative to CD19 CAR T cells [1]: 2 fold and 4 fold
- granule transfer rate to DR^str-EBV-LCLs relative to DR^weak-EBV-LCLs [1]: 2 to 3 times higher
- frequency of CAR T cells with two or more exhaustion markers [2]: 9.2%
- frequency of CD4+ MVR-CAR T cells with two or more polyfunctional markers after co-culture with DR^weak-EBV-LCLs [2]: 31.6%
- frequency of CD8+ MVR-CAR T cells with two or more polyfunctional markers after co-culture with DR^weak-EBV-LCLs [2]: 26.3%
- frequency of Tim-3 expressing CAR T cells [2]: 60.7%
- surface CAR expression (MFI) relative to CD19 CAR T cells [2]: 2 fold lower
- frequency of CAR T cells with two or more exhaustion markers (LAG-3, Tim-3, CTLA-4, PD-1) [3]: 65.8%
B1: MVR CAR (second-generation HLA-DR CAR, FLAG-tagged, from pELPS-FLAGMVRBBz, expressed on T cells or EBV LCLs) (protein)
chain: DYKDDDDKDIQMTQSSSYLSVSLGGRVTITCKASDHINNWLAWYQQKPGNAPRLLISGATSLETGVPSRFSGSGSGKDYTLSITSLQTEDVATYYCQQYWSTPFTFGSGTKLEIKGGGGSGGGGSGGGGSQVQLKESGPGLVAPSQSLSITSTVSGFSLSRYSVHWVRQPPGKGLEWLGMIWGGGSTDYNSALKSRLSISKDNSKSQVFLKMNSLQTDDTAMYYCARNEGDTTAGTWFAYWGQGTLVTVSSTTTPAPRPPTPAPTIASQPLSLRPEACRPAAGGAVHTRGLDFACDIYIWAPLAGTCGVLLLSLVITLYCKRGRKKLLYIFKQPFMRPVQTTQEEDGCSCRFPEEEEGGCELRVKFSRSADAPAYKQGQNQLYNELNLGRREEYDVLDKRRGRDPEMGGKPRRKNPQEGLYNELQKDKMAEAYSEIGMKGERRRGKGHDGLYQGLSTATKDTYDALHMQALPPR
